Paper PMC5677581 (2017)
βAla = NCCC(=O)O

Legend:
MLL-WT [1] = biological target: T1, MLL-WT (Homo sapiens); experiment: fluorescence polarization competition
T1 chain: Ac-DCGNILPSDIMDFVLKNTP-NH2

MLL1 [2] = biological target: T2, MLL1 (Homo sapiens); experiment: fluorescence polarization competition
T2 chain: Ac-SDIMDFVLKNTP-NH2

MLL-WT [3] = biological target: T3, MLL-WT (Homo sapiens); experiment: fluorescence polarization
T3 chain: {fluorescein-βAla}-DCGNILPSDIMDFVLKNTP-NH2

MLL1 [4] = biological target: T4, MLL1 (Homo sapiens); experiment: fluorescence polarization
T4 chain: {fluorescein-βAla}-SDIMDFVLKNTP-NH2

Ki (MLL-WT [1]): 3 µM
Ki (MLL1 [2]): > 1000 µM
Kd (MLL-WT [3]): 1 µM
Kd (MLL1 [4]): > 100 µM
B1: KIX domain of CBP KIX (protein)
chain: not shown
